According to doi:10.1101/2024.04.12.589225:

Columns and labels:
[1] = target: 2nd_AtGDH-ΔT262-A263 (Aspergillus terreus); assay: SEC
[2] = target: 2nd_AtGDH-ΔT262-A263 (Aspergillus terreus); assay: crystal structure
[3] = target: 7th_AtGDH-R246S (Aspergillus terreus); assay: SEC
[4] = target: 7th_AtGDH-R246S (Aspergillus terreus); assay: crystal structure
[5] = target: 8th_AtGDH-A216Q (Aspergillus terreus); assay: SEC
[6] = target: AnGDH-Q216A (Aspergillus niger); assay: SEC
[7] = target: AnGDH-S246R (Aspergillus niger); assay: SEC
[8] = target: Aspergillus niger glutamate dehydrogenase, wild type (Aspergillus niger); assay: cryo-EM structure
[9] = target: Aspergillus terreus glutamate dehydrogenase, wild type (Aspergillus terreus); assay: crystal structure
[10] = target: Aspergillus terreus glutamate dehydrogenase, wild type (Aspergillus terreus); assay: cryo-EM structure

## 2nd_AtGDH-ΔT262-A263 (enzyme)
[1]
  stoichiometry N: 6
[2]
  stoichiometry N: 6

## 7th_AtGDH-R246S (enzyme)
[3]
  stoichiometry N: 6
[4]
  stoichiometry N: 6

## 8th_AtGDH-A216Q (enzyme)
[5]
  stoichiometry N: 6

## AnGDH-Q216A (enzyme)
[6]
  stoichiometry N: 6

## AnGDH-S246R (enzyme)
[7]
  stoichiometry N: 6

## Aspergillus niger glutamate dehydrogenase, wild type (enzyme)
[8]
  stoichiometry N: 6

## Aspergillus terreus glutamate dehydrogenase, wild type (enzyme)
[9]
  stoichiometry N: 6
[10]
  stoichiometry N: 6
